What was measured:
Conditions in all cases: both partners purified
[1] = target: recombinant SARS-CoV-2 S1 RBD protein (Severe acute respiratory syndrome …, UniProt P0DTC2); assay: BLI
[2] = target: SARS-CoV-2 spike receptor-binding domain (residues 333 to 530), carboxyl-terminal 8xHis tag (Severe acute respiratory syndrome …, UniProt P0DTC2); assay: crystal structure
[3] = target: recombinant SARS-CoV-2 S1 protein (SARS-CoV-2, wild type (reference), UniProt P0DTC2); assay: BLI

B1: PR953 (antibody, V domains shown)
VH: EVQLQQSGPELVKPGASVKISCKTSGYTFTEYTMHWVKQSHGKSLEWIGGINPNNGDNTYNQKLKGKATLTVHKSSSTAYMELRSLTSEDSAVYYCARDGYPYYYALDYWGQGTSVTVSS
VL: DIVMTQSQKFMSTSVGDRVSVTCKASQNVGTNVAWYQQKPGQSPKPLIYSASSRYSGVPDRFTGSGSGTDFTLTISNVQSEDLAEYFCQQYNNYPWTFGGGTKLEIK
notes: source: HEK 293F or ExpiCHO, transfected, purified (Protein A)
Kd [1]: < 0.001 nM

B2: PR961 single-chain variable fragment (scFv, V domains shown)
VH: QVQLVQSGAEVKKPGASVKLSCKASGYSFTSYWVNWVRQAPGQGLEWIGMIHPSDSETRLNQKFKDRVTITVDKSTSTAYMELSSLRSEDTAVYYCARADGYEWYFDVWGRGTLVTVSS
VL: DIVLTQSPASLAVSPGQRATITCRASESVDSYGNSFMHWYQQKPGQPPKLLIYRASNLESGIPARFSGSGSGTDFTLTINPVEANDVANYYCQQSNEDPWTFGQGTKVEIK
notes: also called PR961 scFv
binding result [2]: binds

B3: PR1077 (antibody, V domains shown)
VH: QVQLVESGGGVVQPGRSLRLSCAASGFTFSYYGMHWVRQAPGKGLEWVAVIWYDGSNRFYADSVKGRFTISRDNSKSTLYLQMNSLRAEDTAVYYCATDPPGLRFRFDYWGQGTLVTVSS
VL: not shown
notes: as for B1
Kd [3]: 0.543 nM
Kd [1]: 2.33 nM

Reference: article PMC8133496 (PLoS Biology, 2021)
